Reference: publication PMC9233197, “Neuropeptide signalling shapes feeding and reproductive behaviours in male Caenorhabditis elegans” (Life Science Alliance, 2022)
No end group written: not given here.

Biological target: T1, NPR-22 (Caenorhabditis elegans, UniProt Q59E83)
T1 construct: host or cells: CHO-K1 cells (CHO/mtAEQ/Gα16) transiently transfected with NPR-22 cDNA in pcDNA3.1 TOPO
T1 sequence (Q59E83 1-434): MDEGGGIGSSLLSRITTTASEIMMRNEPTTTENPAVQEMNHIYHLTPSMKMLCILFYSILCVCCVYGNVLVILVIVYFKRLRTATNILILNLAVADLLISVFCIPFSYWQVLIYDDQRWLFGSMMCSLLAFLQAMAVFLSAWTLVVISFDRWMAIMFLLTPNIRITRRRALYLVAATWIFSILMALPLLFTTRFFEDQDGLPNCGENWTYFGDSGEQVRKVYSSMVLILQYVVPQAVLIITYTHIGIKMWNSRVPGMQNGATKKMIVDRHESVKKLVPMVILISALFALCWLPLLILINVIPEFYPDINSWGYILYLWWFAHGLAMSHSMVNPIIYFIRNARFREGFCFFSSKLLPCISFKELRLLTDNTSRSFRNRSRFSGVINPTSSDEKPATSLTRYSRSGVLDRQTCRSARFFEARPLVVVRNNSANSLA
Assay: In vitro GPCR activation assay (aequorin bioluminescence, CHO/mtAEQ/Gα16 cells transfected with NPR-22)
Type: cell-based
Conditions: dose–response, n = 6–8 trials
Excerpt: Figure 1. Neuropeptide lury-1 and its receptor npr-22 are expressed in different cells in the two sexes of C. elegans. […] In males, there is additional expression in cells in the tail (white arrows). Dashed outlines indicate worm body and position of pharyngeal bulbs in the head. Scale bar = 10 μm. (B) Identification of lury-1–expressing male tail neurons using NeuroPAL ([Tekieli et al, 2021]; [Yemini et al, 2021]). The lury-1 reporter line used here is JN2443 (Plury-1::Venus, unc-122p::mCherry). […] DX1–DX3 are annotated in the image. Nuclear fluorescence in other neurons is in pseudocolour as in [Yemini et al (2021)]. Scale bar = 10 μm. […] The corresponding EC50 values (M) for each peptide are as indicated. Line represents non-linear regression fit of a variable slope line using three parameters. n = 6–8 trials. […] Expression in male copulatory apparatus is also observed. Dashed outlines indicate worm body and position of pharyngeal bulbs in the head. Scale bar = 10 μm. […]
Cell-based activation assays were performed as described ([Beets et al, 2012]). […] Cells (25,000 cells/well) were exposed to synthetic peptides in BSA medium, and aequorin bioluminescence was recorded for 30 s on a MicroBeta LumiJet luminometer (PerkinElmer) in quadruplicate. […] EC50 values were calculated from dose–response curves, constructed using a nonlinear regression analysis, with sigmoidal dose–response equation (Prism 9.0).

Substance | activation of the receptor NPR-22 in vitro (in words)
LURY-1-2: peptide encoded by the LURY-1 precursor (luqin RYamide) of C. elegans; synthetic peptide in the assay (AVLPRY; ends and bridges not checked; UniProt Q9XW71 38-43, looked up) | activate the receptor NPR-22 in vitro
LURY-1-1: peptide encoded by the LURY-1 precursor (luqin RYamide) of C. elegans; synthetic peptide in the assay (PALLSRY; ends and bridges not checked; UniProt Q9XW71 29-35, looked up) | activate the receptor NPR-22 in vitro
